According to the supplement of paper PMC9170038:

What follows are sequences tested on MS2 coat protein (assay: apparent KD of MS2 coat protein; higher = weaker reporter binding). Details: Eterna round: R107; input ligand: theophylline 2 mM.
Experimental: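 RNA-MaP round R107: designed RNA switches with theophylline, tryptophan, arginine or FMN aptamers are transcribed on-chip within common flanks. They are titrated with SNAP-549-labelled MS2 coat protein in RNA-MaP buffer (100 mM Tris pH 7.5, 80 mM KCl, 4 mM MgCl2), without ligand or with the indicated ligand. Median apparent KD per design.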

**Q.** For “GCUGGACUUUCGGCCGCCACUGAGAGAGUCGUGUGAACAUGAGGAUCACCCAUGUAAUAUAUAUACAGGACCGGGAGGGUUGUGC [4.P]”, which “apparent KD of MS2 coat protein” value is on record?
**A.** 11.6 nM

**Q.** Which “apparent KD of MS2 coat protein” value does the source give for “AUACAUGAGGAUCACCCAUGUAUAGAUGAAGGAGCGACCAGAGGGUCAGGUAGGUCGCAUCACAUGAGGAUCACCCAUGUAUCGA [DOUBLE!!! :-D #8]” here?
**A.** 67.2 nM

**Q.** For “ACAUGAGGAUCACCCAUGUUCCUCAUUGAUACCAGUGAAAGAAGACGCCCUUGGCAGCGAGAAGAAGAAGAAGAAGAAGAAGAGG [6.A]”, which “apparent KD of MS2 coat protein” value is on record?
**A.** 671 nM

**Q.** How did the “apparent KD of MS2 coat protein” value turn out when “UGUAUGUGAUUUGAUACCAGACCAGCUGGUGGUACUUGAGGAUCACCCAAGUAGGUUUGGGUCCCUUGGCAGCAAAUCGCAUACU [SS Theo B #24 Ms10]” was run?
**A.** 30.8 nM

**Q.** How did the “apparent KD of MS2 coat protein” value turn out when “CUGCUACAUACGGCCGCCACUUUAAACAUGAGGAUCACCCAUGUACGGAAGGGUGGUAAAUGUUAAAGGACCGGGUAUGUAGCAA [Tryp B Ex t1]” was run?
**A.** 293 nM

**Q.** Which “apparent KD of MS2 coat protein” value does the source give for “ACAUGAGGAUCACCCAUGUUAAGCACAGAAGGAGCGUGAAGAAACACAGGUAGGUCGCUGUACUUAUCGAGCGUUAGCUCGAUAC [JR_Nu_SSArginiA_Sub029]” here?
**A.** 26.4 nM

**Q.** How did the “apparent KD of MS2 coat protein” value turn out when “AGAUGAGUCACGGCCGCCACUCACUUCAGGUUCACCCUUGGUUAACAUGAGGAUCACCCAUGUGGGAGGACCGGGUGAUGAGCAU [XTryp B #3]” was run?
**A.** 25.3 nM

**Q.** With “ACUAGUUGUGCAGAUACCAGGCAUGAGGAUCACCCAUGUUUGGGAUGUUCGCAUCUUCCUGUCCCUUGGCAGCUGUACAUCUAGA [Omei Theo B Exc v6]” as the sequence, how does the “apparent KD of MS2 coat protein” value read?
**A.** 31.5 nM

**Q.** How did the “apparent KD of MS2 coat protein” value turn out when “GGGCGCUAUCCCGCGAGGGAUAGCGUUCAACGAGGACCGGUACGGCCGCCACUCGAACGAGUGGGUACAUGAGGAUCACCCAUGU [Haa]” was run?
**A.** 37.1 nM

**Q.** “GGACUAACCAGAAGGAGCGGCGCGCAGAAACUGCAAUUUCCUCCACACGAGGAUCACCCGUGUCAGGUAGGUCGCUGGUUAGUCG [ArgBX 29]” was tested. Which “apparent KD of MS2 coat protein” value did it give?
**A.** 12.9 nM

Same assay, conditions: Eterna round: R107; input ligand: tryptophan 2.4 mM

**Q.** “AGACAUGAGGAUCACCCAUGUAGCACGGAUACCAGAUCCAGAUGUAUCCCUUGGCAGCUGUGGUACAGCGUUGCAACGCUCCUAG [Exclusion - Theophylline A (Freestyle 17)]” was tested. Which “apparent KD of MS2 coat protein” value did it give?
**A.** 18.1 nM

**Q.** How did the “apparent KD of MS2 coat protein” value turn out when “AGCGACAUGCGUGAUACCAGCUACAUGAGGAUCACCCAUGUAAGUAGGAAACUACUGUGUAGCCCUUGGCAGCAUAGUGCAUGUC [Exclusion - Theophylline B (Freestyle 22)]” was run?
**A.** 15 nM

**Q.** Which “apparent KD of MS2 coat protein” value does the source give for “ACAUGAGGAUCACCCAUGUCACGGCACGAUACCAGCUGAUCCGGUGGCCCUUGGCAGCGUCACGUUUGGUCCCGCGGAUGACACG [klmmullin]” here?
**A.** 65.5 nM

**Q.** Which “apparent KD of MS2 coat protein” value does the source give for “AUCGGGCCUUUAGAACCGCCGUUCCCACCUCGAGGACCGGUACGGCCGCCACUCGGGUGACAUGAGGAUCACCCAUGUGGACGAA [Gexebidive]” here?
**A.** 284 nM

**Q.** “UGUAUGUGAUCUGAUACCAGUCCAACUGGUAAAACCUGAGGAUCACCCAGGUAAAAUUGGGACCCUUGGCAGCAGAUCGCAUACU” was tested. Which “apparent KD of MS2 coat protein” value did it give?
**A.** 177 nM

**Q.** For “CCUCAUGUGACGGCCGCCACUGAAGUGAUCGAAACAUGAGGAUCACCCAUGUUACGAUCAGAGAACAGGACCGGGUCAACAUGGG [Try B SS s1]”, which “apparent KD of MS2 coat protein” value is on record?
**A.** 9.85 nM

**Q.** With “UGGUACAUGGCGGCCGCCACUGGGUUGAAUACCUGAGGAUCACCCUGGUAAAACGCGAAAGCGACUAGGACCGGGUCAUGUACCU” as the sequence, how does the “apparent KD of MS2 coat protein” value read?
**A.** 44.5 nM

**Q.** With “ACAUGAGGAUCACCCAUGUAAGUUUCAGAAGGAGCGUGAAUUAUCACAGGUAGGUCGCUGAAGUUUGCAUAUACUUAUAAAUGUA [JR_ExcArginiA_Sub006]” as the sequence, how does the “apparent KD of MS2 coat protein” value read?
**A.** 19.8 nM

**Q.** With “ACAUGGGUCUGAAGGAGCGCGAUAACAUGAGGAUCACCCAUGUAAAGUGGAACAUGAUAAUCGCAGGUAGGUCGCAGUAAAACCC [#26 Same State - Arginine B]” as the sequence, how does the “apparent KD of MS2 coat protein” value read?
**A.** 328 nM

**Q.** “GCUGUAAGUGCAGAUACCAGCAAGUGAUAUUUCAUAUGACAUGAGGAUCACCCAUGUAACUGCCCUUGGCAGCUGCACUUACAGC [SSTHB #10]” was tested. Which “apparent KD of MS2 coat protein” value did it give?
**A.** 241 nM

**Q.** With “CUGCCAUGCAGAGAUACCAGUGAGCCCAUAACAUGAGGAUCACCCAUGUACGCCGCAGACCACCCUUGGCAGCUCUGCAUGGCAG [&#$*@]” as the sequence, how does the “apparent KD of MS2 coat protein” value read?
**A.** 16.6 nM

**Q.** Which “apparent KD of MS2 coat protein” value does the source give for “GCAUGUUGGUGGUAUCUGCGAAGGCGGAAUCGAGGACCGGUACGGCCGCCACUCGGCGACAUGAGGAUCACCCAUGUGGUUAGGA [Exclusion - Tryptophan A (Freestyle 8)]” here?
**A.** 203 nM

**Q.** With “CGCACAUGAGGAUCACCCAUGUGAGGGCGACGAGGACCGGUACGGCCGCCACUCGCAAAACAUGAGGAUCACCCAUGUGCCGCCG [SSTA DOUBLE!!! :-D #3]” as the sequence, how does the “apparent KD of MS2 coat protein” value read?
**A.** 20.3 nM

**Q.** How did the “apparent KD of MS2 coat protein” value turn out when “AUGCGGUGCGGAAGGAGCGAGUUUGCCUAUUUACAUGAGGAUCACCCAUGUCCUAAUGGGACUCAGGUAGGUCGCCGUUGUUGCA [Same State Arginine B GF30]” was run?
**A.** 41.6 nM

**Q.** “AGCCGCGUUCUUUCUUUCUUUCUAGCGGCACGAGGACCGGUACGGCCGCCACUCGAAGACAUGAGGAUCACCCAUGUAGUGGGUA [The Second Ring]” was tested. Which “apparent KD of MS2 coat protein” value did it give?
**A.** 206 nM

**Q.** Which “apparent KD of MS2 coat protein” value does the source give for “GCCAGACAUGAGGAUCACCCAUGUAGCGAUACCAGCUCUGUUGUGAGCCCUUGGCAGCGCACUGGCAUCGCGGGUGAUCCUGCAU [(T)''-(Ms2)-(Theo)-(T)'-(M)'-(M)''_Design3]” here?
**A.** 33.1 nM

**Q.** For “ACAUGAGGAUCACCCAUGUACAUGAGGGAAGGAGCGGUACAUGUGCCAGGUAGGUCGCCCAAGAGCAUCAGCCAUGUACAUCAGC [qasmullin]”, which “apparent KD of MS2 coat protein” value is on record?
**A.** 80.5 nM

**Q.** Which “apparent KD of MS2 coat protein” value does the source give for “AUACAUGAGGAUCACCCAUGUAUAGAUGAAGGAGCGACCAGAGGGUCAGGUAGGUCGCAUCACAUGAGGAUCACCCAUGUAUCGA [DOUBLE!!! :-D #8]” here?
**A.** 47.1 nM

**Q.** How did the “apparent KD of MS2 coat protein” value turn out when “ACAUGAGGAUCACCCAUGUUCCUCAUUGAUACCAGUGAAAGAAGACGCCCUUGGCAGCGAGAAGAAGAAGAAGAAGAAGAAGAGG [6.A]” was run?
**A.** 588 nM

**Q.** With “UGUAUGUGAUUUGAUACCAGACCAGCUGGUGGUACUUGAGGAUCACCCAAGUAGGUUUGGGUCCCUUGGCAGCAAAUCGCAUACU [SS Theo B #24 Ms10]” as the sequence, how does the “apparent KD of MS2 coat protein” value read?
**A.** 198 nM

**Q.** How did the “apparent KD of MS2 coat protein” value turn out when “AGAUCUUUCGAAAGAAGGAUCUUGGCUGAUACCAGAGACGAAAGUCUCCCUUGGCAGCAGUGCCAACAUGAGGAUCACCCAUGUA [Theophylline A 13]” was run?
**A.** 42.9 nM

**Q.** With “GUUACAUGGCAAGCAUGUAUAUGGAUAGAUACCAGUUGAUAUUAAGACCCUUGGCAGCUGAGUACAUGAGGAUCACCCAUGUAAG [Theo A Ex t3]” as the sequence, how does the “apparent KD of MS2 coat protein” value read?
**A.** 51.9 nM

**Q.** “ACAUGAGGAUCACCCAUGUUAAGCACAGAAGGAGCGUGAAGAAACACAGGUAGGUCGCUGUACUUAUCGAGCGUUAGCUCGAUAC [JR_Nu_SSArginiA_Sub029]” was tested. Which “apparent KD of MS2 coat protein” value did it give?
**A.** 20.9 nM

**Q.** How did the “apparent KD of MS2 coat protein” value turn out when “UAGUAACAUGAGGAUCACCCAUGUCCGGAUACCAGACAUAUACCAGUCCCUUGGCAGCCGCCAGUUAAAAUCUAACACAAAAGUU [theeternabot_sameState_MS2_Theo_A_34]” was run?
**A.** 34.4 nM

**Q.** For “ACUAGUUGUGCAGAUACCAGGCAUGAGGAUCACCCAUGUUUGGGAUGUUCGCAUCUUCCUGUCCCUUGGCAGCUGUACAUCUAGA [Omei Theo B Exc v6]”, which “apparent KD of MS2 coat protein” value is on record?
**A.** 150 nM

**Q.** For “GGGCGCUAUCCCGCGAGGGAUAGCGUUCAACGAGGACCGGUACGGCCGCCACUCGAACGAGUGGGUACAUGAGGAUCACCCAUGU [Haa]”, which “apparent KD of MS2 coat protein” value is on record?
**A.** 35.4 nM

**Q.** For “GCACGACAUGAGGAUCACCCAUGUGCAGAUACCAGUAAUGUAUAUUACCCUUGGCAGCUGAGUAGAUCUGGAGGGCUAUAGGUAA [Same State Theophylline A GF10]”, which “apparent KD of MS2 coat protein” value is on record?
**A.** 14.1 nM

**Q.** Which “apparent KD of MS2 coat protein” value does the source give for “GGACUAACCAGAAGGAGCGGCGCGCAGAAACUGCAAUUUCCUCCACACGAGGAUCACCCGUGUCAGGUAGGUCGCUGGUUAGUCG [ArgBX 29]” here?
**A.** 12.3 nM

**Q.** With “AAACUGGGUGUAAAAUAAAUAAUCACUGAUACCAGACUAUAGUAUGUCCCUUGGCAGCAGAAACAUGAGGAUCACCCAUGUAAUA [JR_Nu_ExcTheophyA_Sub024]” as the sequence, how does the “apparent KD of MS2 coat protein” value read?
**A.** 25.2 nM
